Assay results as given in US20200149021, “SYSTEM AND METHOD FOR GENOME EDITING” (INSTITUTE OF ZOOLOGY, CHINESE ACADEMY OF SCIENCES, published 2020).

What was measured:
ArCpf1 = target: T1, ArCpf1 (Agathobacter rectalis); assay: cell_activity; PAM TTTC; T7EI; conditions: tags: NLS, HA (2A-eGFP vector)
T1 chain: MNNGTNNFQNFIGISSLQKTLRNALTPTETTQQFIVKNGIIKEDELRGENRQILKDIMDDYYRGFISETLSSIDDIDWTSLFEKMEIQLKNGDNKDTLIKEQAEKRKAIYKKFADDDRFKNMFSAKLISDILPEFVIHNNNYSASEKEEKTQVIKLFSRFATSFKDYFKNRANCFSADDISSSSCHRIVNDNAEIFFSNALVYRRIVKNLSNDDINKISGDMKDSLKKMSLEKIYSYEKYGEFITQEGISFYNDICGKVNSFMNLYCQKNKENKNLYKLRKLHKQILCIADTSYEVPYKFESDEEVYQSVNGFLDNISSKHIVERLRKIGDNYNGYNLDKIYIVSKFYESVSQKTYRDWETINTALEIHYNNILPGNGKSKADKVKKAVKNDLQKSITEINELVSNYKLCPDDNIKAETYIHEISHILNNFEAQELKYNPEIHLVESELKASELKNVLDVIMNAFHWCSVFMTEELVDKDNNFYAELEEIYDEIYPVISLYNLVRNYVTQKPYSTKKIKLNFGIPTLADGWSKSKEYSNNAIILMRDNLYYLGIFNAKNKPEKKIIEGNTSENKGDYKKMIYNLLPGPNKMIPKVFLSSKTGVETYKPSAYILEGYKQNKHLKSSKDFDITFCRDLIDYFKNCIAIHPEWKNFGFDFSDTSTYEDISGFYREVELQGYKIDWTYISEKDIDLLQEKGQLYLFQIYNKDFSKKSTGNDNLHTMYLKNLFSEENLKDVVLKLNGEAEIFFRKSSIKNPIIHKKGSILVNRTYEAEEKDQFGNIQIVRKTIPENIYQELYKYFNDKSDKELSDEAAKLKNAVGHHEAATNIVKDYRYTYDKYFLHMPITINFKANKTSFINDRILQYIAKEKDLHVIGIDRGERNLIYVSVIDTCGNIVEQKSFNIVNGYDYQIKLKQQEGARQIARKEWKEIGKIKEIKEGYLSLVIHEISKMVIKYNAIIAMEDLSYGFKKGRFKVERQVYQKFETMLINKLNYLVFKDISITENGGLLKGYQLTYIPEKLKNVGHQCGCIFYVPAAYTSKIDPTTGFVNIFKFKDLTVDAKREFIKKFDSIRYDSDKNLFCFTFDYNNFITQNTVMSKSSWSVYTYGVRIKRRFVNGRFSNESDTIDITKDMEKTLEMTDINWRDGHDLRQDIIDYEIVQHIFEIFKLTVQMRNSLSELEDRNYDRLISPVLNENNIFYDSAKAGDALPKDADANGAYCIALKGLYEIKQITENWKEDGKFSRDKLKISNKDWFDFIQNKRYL
Protocol: (§1) GFP-positive cells were sorted by FACS, lysed with Buffer L+ 1/100V Protease K (Biotool) at 55° C. for 30 min, inactivated at 95° C. for 5 min, and directly used for PCR detection. Appropriate primers were designed near the Cpf1 targeting site, and the amplified product was purified using DNA Clean & Concentrator™-5 kit (ZYMO Research). 200 ng of purified PCR product was added into 1 uL of NEBuffer2 (NEB) and diluted to 10 uL with ddH₂O. Then, heterodimers were formed by re-annealing according to the previously reported method (Li, W., et al., Simultaneous generation and germline transmission of multiple gene mutations in rat using CRISPR-Cas systems. Nat Biotechnol, 2013. 31(8): p. 684-6). The reannealed product was added with 0.3 uL of T7EI endnucelease and 1/10 V NEBuffer2 (NEB), and digested at 37° C. for 1 h 30 min. Genotype analysis was performed by 3% TAE-Gel electrophoresis. Indels were calculated according to the method reported in the previous article (Cong, L., et al., Multiplex genome engineering using CRISPR/Cas systems. Science, 2013. 339(6121): p. 819-23).
(§2) The cells were transfected with Cpf1, crRNA31, and crRNA2 plasmids, and it was confirmed by PCR and T7EI analysis that crRNA31 can increase the editing efficiency of five Cpf1s of ArCpf1, BsCpf1, HkCpf1, PrCpf1, and PxCpf1 at the site MeCP2-4 by two folds (FIG. 13B).

BsCpf1 = target: T2, BsCpf1 (Butyrivibrio sp. NC30); assay: cell_activity; PAM TTTC; T7EI; conditions: tags: HA (2A-eGFP vector)
T2 chain: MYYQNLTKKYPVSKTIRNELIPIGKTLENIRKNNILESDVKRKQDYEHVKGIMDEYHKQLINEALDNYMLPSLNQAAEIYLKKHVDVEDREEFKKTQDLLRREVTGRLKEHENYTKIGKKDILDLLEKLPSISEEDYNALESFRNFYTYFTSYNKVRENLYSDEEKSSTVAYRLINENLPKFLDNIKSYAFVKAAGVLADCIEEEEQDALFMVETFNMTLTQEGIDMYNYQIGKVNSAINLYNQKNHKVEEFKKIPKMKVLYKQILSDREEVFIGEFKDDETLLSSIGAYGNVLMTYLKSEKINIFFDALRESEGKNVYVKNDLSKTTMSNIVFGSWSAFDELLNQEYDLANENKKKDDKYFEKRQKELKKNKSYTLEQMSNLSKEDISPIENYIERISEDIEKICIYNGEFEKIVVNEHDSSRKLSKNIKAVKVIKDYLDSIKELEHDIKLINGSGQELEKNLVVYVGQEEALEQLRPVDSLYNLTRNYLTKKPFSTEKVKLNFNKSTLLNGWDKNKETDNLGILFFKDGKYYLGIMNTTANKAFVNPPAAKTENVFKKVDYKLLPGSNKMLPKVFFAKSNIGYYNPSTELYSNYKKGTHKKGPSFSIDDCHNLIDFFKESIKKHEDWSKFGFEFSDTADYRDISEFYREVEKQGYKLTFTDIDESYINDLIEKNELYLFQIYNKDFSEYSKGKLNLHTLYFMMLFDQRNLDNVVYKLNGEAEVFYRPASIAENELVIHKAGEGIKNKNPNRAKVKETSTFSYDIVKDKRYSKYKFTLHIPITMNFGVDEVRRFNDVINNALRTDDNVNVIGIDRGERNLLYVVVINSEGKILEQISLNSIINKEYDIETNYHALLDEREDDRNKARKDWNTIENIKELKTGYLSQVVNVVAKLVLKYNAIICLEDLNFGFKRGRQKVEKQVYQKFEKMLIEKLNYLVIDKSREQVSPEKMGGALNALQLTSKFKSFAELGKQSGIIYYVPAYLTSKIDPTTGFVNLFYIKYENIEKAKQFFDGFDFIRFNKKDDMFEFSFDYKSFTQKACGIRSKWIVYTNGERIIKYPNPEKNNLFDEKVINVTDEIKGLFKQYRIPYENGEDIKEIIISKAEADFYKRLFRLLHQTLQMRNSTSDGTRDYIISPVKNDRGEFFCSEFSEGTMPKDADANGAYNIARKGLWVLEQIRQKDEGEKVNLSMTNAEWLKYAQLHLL
Protocol: as §1, §2

B1: crRNA31 MeCP2 site 4 ; Mouse MeCP2 site 4 (ssRNA ; dsDNA)
RNA: AUUUCUACUAUGGUAGAUGUGUCCAACCUUCAGGCAAGGUG
DNA 1: TTTCGTGTCCAACCTTCAGGCAAGGTG
DNA 2: CACCTTGCCTGAAGGTTGGACACGAAA
Work on B1 yielded an editing efficiency (ArCpf1) of about 2 fold vs crRNA2 and an editing efficiency (BsCpf1) of about 2 fold vs crRNA2.
